{"source": "patent US11357816B2", "about": "“Ligand controling interaction between gags with their effector molecules and use thereof” (CENTRE NATIONAL DE LA RECHERCHE SCIENTIFIQUE (CNRS), priority 2018, dated 2022)", "biological_target": "T1, Sema-3A (Mus musculus, UniProt O08665)", "T1 construct": "Visual cortex of adult mice were dissected and lysed in homogenization buffer; from tissue; host or cells: adult mouse visual cortex", "T1 sequence (O08665 21-772)": "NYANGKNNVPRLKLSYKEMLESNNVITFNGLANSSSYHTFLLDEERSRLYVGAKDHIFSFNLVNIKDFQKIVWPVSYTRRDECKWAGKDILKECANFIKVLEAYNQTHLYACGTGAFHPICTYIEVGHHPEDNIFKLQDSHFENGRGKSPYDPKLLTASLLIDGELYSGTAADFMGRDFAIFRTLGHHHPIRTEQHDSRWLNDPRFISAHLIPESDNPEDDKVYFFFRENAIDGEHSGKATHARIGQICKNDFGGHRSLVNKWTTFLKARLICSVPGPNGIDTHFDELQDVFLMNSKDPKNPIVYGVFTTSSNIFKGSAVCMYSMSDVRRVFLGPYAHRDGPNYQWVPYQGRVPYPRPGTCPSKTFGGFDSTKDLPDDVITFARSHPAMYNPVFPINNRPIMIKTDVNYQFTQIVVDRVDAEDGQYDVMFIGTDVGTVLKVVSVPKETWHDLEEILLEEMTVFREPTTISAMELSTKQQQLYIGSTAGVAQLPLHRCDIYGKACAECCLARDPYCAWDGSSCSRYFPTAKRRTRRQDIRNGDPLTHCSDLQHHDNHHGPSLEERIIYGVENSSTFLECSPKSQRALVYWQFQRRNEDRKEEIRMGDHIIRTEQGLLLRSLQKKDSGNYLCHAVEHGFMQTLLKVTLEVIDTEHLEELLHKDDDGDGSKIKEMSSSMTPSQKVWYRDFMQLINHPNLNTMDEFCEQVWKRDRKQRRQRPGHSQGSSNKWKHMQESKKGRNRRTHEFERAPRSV", "test": "Ligand pull-down with lysates of adult mouse visual cortex, western blot for Sema-3A", "type": "binding", "conditions": "ligand pre-incubated with 50 nmol peptide", "experimental": "Visual cortex of adult mice were dissected and lysed in homogenization buffer (0.32 M sucrose, 5 mM HEPES, 10 mM MgCl2 and protease inhibitors). Samples were centrifuged (8 min, 1700 g) at 4° C. and the supernatant was incubated 2 hours at 37° C. with 5 nmol of GAG mimics. For the competition assay, ligands were pre-incubated 30 min with 50 nmol of RK-, AA- or SC-peptide at 37° C. prior to incubation overnight at 4° C. with streptavidin-coupled Dynabeads (Life technologies). The loaded beads were washed with homogenization buffer and heated 10 min at 95° C. in Laemmli buffer (with DTT) to detach proteins for western blot analysis.\nImmunoprecipitated proteins were separated on NuPAGE 4-12% Bis-Tris pre-cast gels (Invitrogen) for 1 h at 200 V and transferred onto a methanol-activated PVDF membrane at 400 mA for 1 h. Membranes were blocked with 5% non-fat dry milk for 1 h before incubation with primary antibody anti-Sema3A (rabbit, 1/1000, Millipore) overnight at 4° C. […] Membranes were digitized with an LAS-4000 (Fujifilm) and quantified by densitometry with ImageJ.\nTo measure the in vivo activity and specificity of biotinylated GAG mimics, we performed biochemical and immunohistochemical analyses. […] We first focused on Sema-3A, as cortical Otx2 levels are too low to be reliably detected biochemically."}
{"sequence": "RKQRRERTTFTRAQL [RKpep]", "values": [{"measurement": "disruption of Sema-3A interaction with (EC′AC′)6 by competing peptide", "result": "specifically disrupts Sema-3A interaction"}]}
